± gives the standard deviation of the averaged measurements.
B1: library; a variant is named by its letters at N, in order (parent)
chain: GCUGUCACCGGUGCUUGGUACGUUAUAUUCAGCCGGUCUGAUGAGUCUNNNNNNAGACGAAACAGC

How the values were obtained:
(6R,S)-folinic acid [1] = variants of: B1; experiment: FACS-Seq fitted mean relative fluorescence mCherry/BFP without ligand (log10 relative fluorescence); HEK293T overexpressing SLC46A1; higher = higher reporter protein expression; conditions: without (6R,S)-folinic acid; ligand present: no
Outline: (§1)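 Cells were sorted into 6 bins on the mCherry/BFP ratio after 48 h with or without ligand. These were enriched HEK293T cells transduced by lentivirus with a ribozyme-switch mCherry reporter plus an EF1α-BFP marker. Fluorescence was obtained by fitting a normal distribution to sequencing-derived bin counts. Counts came from MiSeq sequencing of PCR-amplified, barcoded genomic DNA, binned by log10(mCherry/BFP), with means scaled to five spiked-in control ribozymes.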

(6R,S)-folinic acid [2] = variants of: B1; experiment: normalized RNA/DNA level without ligand (relative to sTRSVctl = 100) (log10 (% of sTRSVctl)); HEK293T overexpressing SLC46A1; higher = less ribozyme self-cleavage, higher mRNA level; conditions: without (6R,S)-folinic acid; ligand present: no
Outline: (§2)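 Total RNA, extracted with EDTA 72 h after HEK293T cells were transfected with 4 µg per 6-well well of reporter-linked ribozyme switch library plasmids, was reverse-transcribed, amplified, barcoded and sequenced. Ligand, if used, was added 1 h before transfection. RNA level was derived from RNA reads divided by DNA reads and normalized to a spiked-in non-cleaving sequence or to the top sequences. This was multiplied by 100 and log10-transformed, with the top set of 25 sequences and a ≥100 DNA read minimum.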

(6R,S)-folinic acid [3] = variants of: B1; experiment: FACS-Seq fitted mean relative fluorescence mCherry/BFP with ligand (log10 relative fluorescence); HEK293T overexpressing SLC46A1; ligand concentration (+) FACS-Seq: 6 mM; higher = higher reporter protein expression; conditions: with (6R,S)-folinic acid; ligand present: yes
Outline: as §1

(6R,S)-folinic acid [4] = variants of: B1; experiment: normalized RNA/DNA level with ligand (relative to sTRSVctl = 100) (log10 (% of sTRSVctl)); HEK293T overexpressing SLC46A1; ligand concentration (+) RNA-Seq: 6 mM; higher = less ribozyme self-cleavage, higher mRNA level; conditions: with (6R,S)-folinic acid; ligand present: yes
Outline: as §2

Variant | FACS-Seq fitted mean (log10) ((6R,S)-folinic acid [1]) | normalized RNA/DNA level without ligand (log10) ((6R,S)-folinic acid [2]) | FACS-Seq fitted mean (log10) ((6R,S)-folinic acid [3]) | normalized RNA/DNA level with ligand (log10) ((6R,S)-folinic acid [4])
UGGUAC | -0.0637 ± 0.16 | 1.994 ± 0.013 | -0.0596 ± 0.18 | 1.99 ± 0.039
GGGUAG | 0.0738 ± 0.081 | 1.979 ± 0.0061 | 0.00328 ± 0.082 | 2.013 ± 0.015
UGGUAG | 0.0552 ± 0.19 | 1.5837 ± 9.7e-05 | 0.505 ± 0.61 | 1.935 ± 0.017
GGGUAU | 0.149 ± 0.054 | 2.014 ± 0.015 | 0.284 ± 0.16 | 2.01 ± 0.033
UGGUAU | 0.259 ± 0.18 | 1.926 ± 0.0022 | 0.274 ± 0.046 | 1.99 ± 0.015
AGGUCC | 0.442 ± 0.027 | 2.04 ± 0.0067 | 0.429 ± 0.22 | 2.03 ± 0.021
GGGUCG | 0.531 ± 0.011 | 2.082 ± 0.0039 | 0.432 ± 0.17 | 2.06 ± 0.05
GGGUGA | 0.435 ± 0.078 | 2.067 ± 0.0049 | 0.36 ± 0.31 | 2.07 ± 0.036
UGGUGA | 0.399 ± 0.049 | 1.881 ± 0.0069 | 0.443 ± 0.061 | 2.014 ± 0.0098
AGGUGA | 0.616 ± 0.086 | 1.964 ± 0.0069 | 0.768 ± 0.25 | 2.03 ± 0.028
GGGUGC | 0.427 ± 0.079 | 1.969 ± 0.01 | 0.461 ± 0.023 | 2.011 ± 0.007
UGGUGG | 0.464 ± 0.054 | 1.736 ± 0.014 | 0.742 ± 0.064 | 1.96 ± 0.031
AGGUGG | 0.777 ± 0.14 | 1.977 ± 0.0086 | 0.549 ± 0.26 | 2.05 ± 0.045
CGGUGU | 0.22 ± 0.22 | 1.993 ± 0.015 | 0.278 ± 0.12 | 1.98 ± 0.046
UGGUGU | 0.386 ± 0.1 | 1.933 ± 0.014 | 0.292 ± 0.034 | 2.01 ± 0.048
AGGUGU | 0.0941 ± 0.074 | 1.954 ± 0.015 | 0.266 ± 0.017 | 2.0099 ± 0.00041
CGGUUA | 0.594 ± 0.087 | 1.9899 ± 0.00027 | 0.531 ± 0.12 | 2.02 ± 0.056
AGGUUA | 0.33 ± 0.013 | 1.981 ± 0.0028 | 0.384 ± 0.056 | 1.98 ± 0.04

— the supplement of paper PMC6757056
